The target in this experiment is FcγR (receptor for the Fc portion of immunoglobulin molecule) on bone marrow derived macrophages (mouse). Put plainly: cell-based or functional assay.

Among the data in patent US20060251733A1 are IL-10 production by BMMφ (ELISA of supernatants), LPS + E-IgG and IL-10 production by BMMφ (ELISA of supernatants), LPS + E-IgG against LPS alone values, retold here.

With “IgG-opsonized erythrocytes (E-IgG): sheep erythrocytes (SRBC) opsonized with rabbit IgG antibody to SRBC”, the IL-10 production by BMMφ (ELISA of supernatants), LPS + E-IgG came out at 10 ng/mL and the IL-10 production by BMMφ (ELISA of supernatants), LPS + E-IgG against LPS alone is over 5 fold.
